Results reported in article PMC10687025, “Endosomal Arl4A attenuates EGFR degradation by binding to the ESCRT-II component VPS36” (Nature Communications, 2023).

Key:
Assay in all cases: pull-down; 2 μg GST fusion protein on glutathione beads with 2 μg His-tagged Arl4A in 1 ml binding buffer (20 mM Tris-HCl pH 8.0, 150 mM NaCl, 5 mM MgCl2, 1 mM EDTA, 1 mM DTT, 10% glycerol, 1% Triton X-100), 1 h at 4 °C; anti-His blot
Settings in all cases: both partners purified
His-tagged Arl4A WT = target: T1, His-tagged Arl4A WT (UniProt P40617 1-200)
T1 construct: Arl4A, wild type; also called His-Arl4A; source: recombinant, purified (Ni-NTA resin)
T1 sequence (looked up): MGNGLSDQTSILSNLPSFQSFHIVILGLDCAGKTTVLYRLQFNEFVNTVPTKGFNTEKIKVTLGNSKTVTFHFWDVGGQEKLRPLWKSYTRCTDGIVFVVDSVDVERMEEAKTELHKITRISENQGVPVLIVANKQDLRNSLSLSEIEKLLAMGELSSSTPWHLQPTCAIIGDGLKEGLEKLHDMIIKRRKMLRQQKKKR

His-tagged Arl4A Q79L = target: T2, His-tagged Arl4A Q79L (UniProt P40617 1-200, Q79L)
T2 construct: Arl4A, mutant Q79L; source: recombinant, purified (Ni-NTA resin)
T2 sequence (looked up): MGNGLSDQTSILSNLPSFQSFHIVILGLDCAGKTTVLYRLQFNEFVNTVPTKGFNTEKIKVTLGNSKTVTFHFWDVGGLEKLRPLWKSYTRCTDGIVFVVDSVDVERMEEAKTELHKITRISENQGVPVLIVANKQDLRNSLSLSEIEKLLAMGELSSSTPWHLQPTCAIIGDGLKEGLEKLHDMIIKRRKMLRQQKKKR

His-tagged Arl4A T51N = target: T3, His-tagged Arl4A T51N (UniProt P40617 1-200, T51N)
T3 construct: Arl4A, mutant T51N; also called His-Arl4A T51N; source: recombinant, purified (Ni-NTA resin)
T3 sequence (looked up): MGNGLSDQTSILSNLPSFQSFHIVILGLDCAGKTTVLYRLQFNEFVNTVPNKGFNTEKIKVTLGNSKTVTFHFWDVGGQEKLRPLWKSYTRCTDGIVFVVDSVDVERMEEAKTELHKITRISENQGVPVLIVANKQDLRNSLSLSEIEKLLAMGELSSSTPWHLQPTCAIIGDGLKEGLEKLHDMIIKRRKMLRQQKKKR

Measured: binding result

B1: GST-VPS36 (201–386) (domain or fragment, UniProt Q86VN1 201-386, looked up)
chain: KIKDKQGDITEDETIRFKSYLLSMGIANPVTRETYGSGTQYHMQLAKQLAGILQVPLEERGGIMSLTEVYCLVNRARGMELLSPEDLVNACKMLEALKLPLRLRVFDSGVMVIELQSHKEEEMVASALETVSEKGSLTSEEFAKLVGMSVLLAKERLLLAEKMGHLCRDDSVEGLRFYPNLFMTQS
notes: source: E. coli BL21, purified on glutathione Sepharose 4B beads
binds: His-tagged Arl4A WT | His-tagged Arl4A Q79L | His-tagged Arl4A T51N
